B1: His-tagged rat β4-FNIII-3 (β4 integrin amino acids 1512–1602) (domain or fragment, UniProt Q64632 1512-1602, looked up)
chain: PDTPTRLVFSALGPTSLKVSWQEPQCDRALLGYSVEYQLLNGGEMHRLNIPNPGQTSVVVEDLLPNHSYVFRVRAQSQEGWGREREGVITI
notes: β4 integrin, third cytoplasmic fibronectin type III domain, rat, amino acids 1512-1602, synthetic gene in pJ401; No tag cleavage is described for this protein; the His tag is partly seen in the crystal structure; also called His-β4-FNIII-3; rFNIII-3; source: E. coli BL21(DE3), purified (Ni-NTA, SEC)
B2: rat L-PRX C-terminal region (amino acids 1036–1383) (domain or fragment, UniProt Q63425 1036-1383, looked up)
chain: EVELVTPGAQETEKVTSGVKPSGLQVSTTRQVVAEGQEGAQRVSSLGISLPQVELASFGEAGPEIAAPSAEGTVGSRIQVPQVMLELPGTQVAGGDLLVGEGIFKMPTVTVPQLELDVGLGHEAQAGETAKSEGGLKLKLPTLGAGGKGEGAEAQSPEAQHTFHISLPDVELTSPVSSHAEYQVVEGDGDGGHKLKVRLPLFGLARAKEGIETGEKVKSPKLRLPRVGFSQSESASGEGSPSPEEEEEGSGEGASGRRGRVRVRLPRVGLASPSKGSKGQEGDAASKSPVGEKSPKFRFPRVSLSPKARSGSKDREEGGFRVRLPSVGFSETAAPGSARIEGTQAAAI
notes: After TEV cleavage an additional N-terminal Ser residue is left; also called rPRX-C; source: E. coli BL21(DE3), purified (Ni-NTA in urea, TEV cleavage, second Ni-NTA, SEC)
B3: periaxin C-terminal segment (protein)
chain: SGRRGRVRVRLPRVGLAAPSKASRGQEGDAAPKSPVREKSPKFRFPRVSLSPKARSGSGDQEEGGLRVRLPSVGFSETGAPGPARMEGAQAAAV

Assay [1] addresses B2. Nature of the assay: ITC; 680 μM β4-FNIII-3 titrated into 68 μM PRX-C, 25°C, 20 mM HEPES, 150 mM NaCl, pH 7.5. To be noted: both partners purified.
Assay [2] deals with B1. Briefly: SEC-MALS; with QELS; equimolar complex (145 μM each), Superdex 200 increase 3.2/300GL, 20 mM Tris, 150 mM NaCl, pH 7.4, ambient temperature. To be noted: both partners purified. In general terms: Size exclusion chromatography separates by hydrodynamic size, large species first.
Assay [3] has as its target T1, β4 integrin FNIII-3 (Homo sapiens, UniProt P16144).
T1 chain: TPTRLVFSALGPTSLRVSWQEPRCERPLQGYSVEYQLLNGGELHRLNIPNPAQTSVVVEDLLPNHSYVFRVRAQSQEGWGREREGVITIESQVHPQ
Briefly: ITC. On the technique in general: In ITC the heat of successive injections is recorded.

Take B1: in assay [1], the Kd (usually a measure of binding affinity in units of concentration) was 1.7 ± 0.1 µM, the dH is 6.2 ± 0.06 kcal/mol and the stoichiometry N (commonly a count of units in the complex or per binding partner) is about 1.

For the molecule B2, the “stoichiometry N” value in assay [2] stood at 1.

On to B3, for which, in assay [3], the Kd was 1.7 µM.

Source of the values: publication PMC6465933, “Direct Binding of the Flexible C-Terminal Segment of Periaxin to β4 Integrin Suggests a Molecular Basis for CMT4F” (Frontiers in Molecular Neuroscience, 2019).
